Target: HCV E2 antigen (HCV genotype 1b) (hepatitis C virus genotype 1b)

B1: Fab molecule clone 1:11 (Fab, V domains shown)
VH: VQLLEQSGAEVKKPGSSVKVSCKASGGTFSGHVISWVRQAPGQGLEWMGGSISFFGTSNSAQKFQGRVSITADESASTAYMELSSLRSEDTAIYYCAKDPPRFCSGGNCYPGFFQQWGQGTLVTVSS
VL: AELTQSPGTLSLSPGERATLSCGASQSVRSNYLAWYQQKPGQAPRLLIYGVSSRATGIPDRFSGSGSGTDFTLTISRLEPEDFAVYYCQQYGSSPRTFGQGTKLEIK
  IC50: 0.15 µg/mL

Reference: patent publication US6747136
